Common to all, as to assay: cell-based or functional assay
Test [1] concerns the target cysteine-like cathepsin-B protease activities from Leptinotarsa decemlineata (Colorado potato beetle) gut extracts (Leptinotarsa decemlineata).
For test [2], the target named is cysteine-like cathepsin-L protease activities from extracts of adults of Tribolium castaneum (red flour beetle) (Tribolium castaneum).
Test [3] deals with serine-like elastase protease activities from Ostrinia nubilalis (European corn borer) larval gut extracts (Ostrinia nubilalis).
Test [4] deals with serine-like trypsin protease activities from Ostrinia nubilalis (European corn borer) larval gut extracts (Ostrinia nubilalis).
For test [5], the target named is cysteine-like cathepsin-L protease activities from Leptinotarsa decemlineata (Colorado potato beetle) gut extracts (Leptinotarsa decemlineata).
Test [6] concerns the target cysteine-like cathepsin-L protease activities from extracts of adults of Bemisia tabaci (sweetpotato whitefly) (Bemisia tabaci).
For test [7], the target named is cysteine-like cathepsin-L protease activities from extracts of adults of Tetranychus urticae (spider mites) (Tetranychus urticae).
Test [8] deals with cysteine-like cathepsin-L protease activities from extracts of adults of Acyrthosiphon pisum (pea aphid) (Acyrthosiphon pisum).
Test [9] deals with serine-like chymotrypsin protease activities from Sesamia nonagrioides (Mediterranean corn borer) larval gut extracts (Sesamia nonagrioides).
Test [10] has as its target cysteine-like cathepsin-B protease activities from extracts of adults of Acyrthosiphon pisum (pea aphid) (Acyrthosiphon pisum).
For test [11], the target named is serine-like chymotrypsin protease activities from Spodoptera littoralis (cotton leafworm) larval gut extracts (Spodoptera littoralis).
The target of test [12] is serine-like trypsin protease activities from Spodoptera littoralis (cotton leafworm) larval gut extracts (Spodoptera littoralis).
The target in test [13] is serine-like trypsin protease activities from Sesamia nonagrioides (Mediterranean corn borer) larval gut extracts (Sesamia nonagrioides).
The target in test [14] is cysteine-like cathepsin-B protease activities from Leptinotarsa decemlineata (Colorado potato beetle) gut extracts (Leptinotarsa decemlineata). The source holds these as a separate data set.
Test [15] addresses cysteine-like cathepsin-L protease activities from extracts of adults of Tribolium castaneum (red flour beetle) (Tribolium castaneum). This is another data set of the same source.
The target of test [16] is serine-like trypsin protease activities from Sesamia nonagrioides (Mediterranean corn borer) larval gut extracts (Sesamia nonagrioides). This is another data set of the same source.
In test [17] the target is serine-like trypsin protease activities from Ostrinia nubilalis (European corn borer) larval gut extracts (Ostrinia nubilalis). The source holds these as a separate data set.
Test [18] has as its target cysteine-like cathepsin-L protease activities from Leptinotarsa decemlineata (Colorado potato beetle) gut extracts (Leptinotarsa decemlineata). This is another data set of the same source.
Test [19] has as its target cysteine-like cathepsin-L protease activities from extracts of adults of Bemisia tabaci (sweetpotato whitefly) (Bemisia tabaci). The source holds these as a separate data set.
Test [20] concerns the target cysteine-like cathepsin-L protease activities from extracts of adults of Tetranychus urticae (spider mites) (Tetranychus urticae). This is another data set of the same source.
Test [21] addresses cysteine-like cathepsin-L protease activities from extracts of adults of Acyrthosiphon pisum (pea aphid) (Acyrthosiphon pisum). This is another data set of the same source.
Test [22] has as its target cysteine-like cathepsin-B protease activities from extracts of adults of Acyrthosiphon pisum (pea aphid) (Acyrthosiphon pisum). The source holds these as a separate data set.
The target in test [23] is serine-like chymotrypsin protease activities from Spodoptera littoralis (cotton leafworm) larval gut extracts (Spodoptera littoralis). This is another data set of the same source.
The target in test [24] is serine-like trypsin protease activities from Spodoptera littoralis (cotton leafworm) larval gut extracts (Spodoptera littoralis). The source holds these as a separate data set.

The text below walks through data of US20100333236A1.

Where “and” joins values, the source holds several entries; their conditions need not be identical. Equal entries are not always repeated. Where two headings read alike, the source gives them in different places.

In test [1], “AtSerpin1 mutant IKLA (SEQ ID NO:3) (from UniProt Q9S7T8 1-391)” registered a % Inhibition, Cathepsin-B, 1.25 µM serpin of 62%; a % Inhibition, Cathepsin-B, 5 µM serpin of 77%; a % Inhibition, Cathepsin-B, 10 µM serpin of 70%. In test [2], the % Inhibition, Cathepsin-L, 0.08 µM serpin amounted to 12%; the % Inhibition, Cathepsin-L, 0.16 µM serpin came to 32%; the % Inhibition, Cathepsin-L, 0.31 µM serpin is 57%; the % Inhibition, Cathepsin-L, 0.63 µM serpin was determined as 63%. Also, in [2], the % Inhibition, Cathepsin-L, 1.25 µM serpin turned out to be 68%; the % Inhibition, Cathepsin-L, 2.5 µM serpin came out at 68%; the % Inhibition, Cathepsin-L, 5 µM serpin came to 72%; the % Inhibition, Cathepsin-L, 10 µM serpin stood at 70%. In test [2], this molecule showed a % Inhibition, Cathepsin-L, 20 µM serpin of 76%; an IC50 of cathepsin-L activity inhibition (FIG. 4) of 0.2 to 0.3 µM; a fold activity against AtSerpin1, cathepsin-L inhibition (FIG. 4) of more than 10 times. Besides, the % Inhibition, Elastase, 2 µM serpin in test [3] was 21%. This molecule gave a % Inhibition, Trypsin, 2 µM serpin in [4] of 51%. Besides, in test [5], the % Inhibition, Cathepsin-L, 1.25 µM serpin came out at 18%; the % Inhibition, Cathepsin-L, 5 µM serpin turned out to be 44%; the % Inhibition, Cathepsin-L, 10 µM serpin amounted to 66%. Further, in [6], the % Inhibition, Cathepsin-L, 0.16 µM serpin came to 3%; the % Inhibition, Cathepsin-L, 0.31 µM serpin was determined as 10%; the % Inhibition, Cathepsin-L, 0.63 µM serpin amounted to 15%; the % Inhibition, Cathepsin-L, 1.25 µM serpin was determined as 27%. In test [6], this molecule gave a % Inhibition, Cathepsin-L, 2.5 µM serpin of 38%; a % Inhibition, Cathepsin-L, 5 µM serpin of 48%; a % Inhibition, Cathepsin-L, 10 µM serpin of 60%; a % Inhibition, Cathepsin-L, 20 µM serpin of 70%. In test [6], the IC50 of cathepsin-L activity inhibition (FIG. 6) came out at 5 µM; the fold activity against AtSerpin1, cathepsin-L inhibition (FIG. 6) is 5 times and 10 times. In test [7], this molecule registered a % Inhibition, Cathepsin-L, 0.02 µM serpin of 9%; a % Inhibition, Cathepsin-L, 0.04 µM serpin of 11%; a % Inhibition, Cathepsin-L, 0.08 µM serpin of 12%; a % Inhibition, Cathepsin-L, 0.16 µM serpin of 22%. Further, in test [7], the % Inhibition, Cathepsin-L, 0.31 µM serpin was determined as 33%; the % Inhibition, Cathepsin-L, 0.63 µM serpin was found to be 44%; the % Inhibition, Cathepsin-L, 1.25 µM serpin came to 51%; the % Inhibition, Cathepsin-L, 2.5 µM serpin amounted to 59%. Moreover, in test [7], the % Inhibition, Cathepsin-L, 5 µM serpin is 71%; the % Inhibition, Cathepsin-L, 10 µM serpin turned out to be 75%; the % Inhibition, Cathepsin-L, 20 µM serpin is 79%; the IC50 of cathepsin-L activity inhibition (FIG. 7) is less than 1 µM. In [7], the fold activity against AtSerpin1, cathepsin-L inhibition (FIG. 7) was 2 times and 3 times. In [8], this molecule showed a % Inhibition, Cathepsin-L, 1.25 µM serpin of 24%; a % Inhibition, Cathepsin-L, 5 µM serpin of 34%; a % Inhibition, Cathepsin-L, 10 µM serpin of 45%. For the same molecule, in test [9], the % Inhibition, Chymotrypsin, 5 µM serpin is 32% and the % Inhibition, Chymotrypsin, 10 µM serpin was 70%. In test [10], the % Inhibition, Cathepsin-B, 1.25 µM serpin stood at 24%; the % Inhibition, Cathepsin-B, 5 µM serpin is 31%; the % Inhibition, Cathepsin-B, 10 µM serpin amounted to 36%. In test [11], this molecule showed a % Inhibition, Chymotrypsin, 1.25 µM serpin of 11%; a % Inhibition, Chymotrypsin, 5 µM serpin of 41%; a % Inhibition, Chymotrypsin, 10 µM serpin of 56%. In [12], this molecule displayed a % Inhibition, Trypsin, 1.25 µM serpin of 18%; a % Inhibition, Trypsin, 5 µM serpin of 32%; a % Inhibition, Trypsin, 10 µM serpin of 40%.
Consider “AtSerpin1 mutant IKLK (SEQ ID NO:7) (from UniProt Q9S7T8 1-391)”, for which, in test [10], the % Inhibition, Cathepsin-B, 5 µM serpin was found to be 49% and the % Inhibition, Cathepsin-B, 10 µM serpin was determined as 66%. In test [12], the % Inhibition, Trypsin, 5 µM serpin was 64% and the % Inhibition, Trypsin, 10 µM serpin amounted to 69%.
As for “AtSerpin1 mutant IRPR (SEQ ID NO:5) (from UniProt Q9S7T8 1-391)”, the values for the % Inhibition, Cathepsin-L, 1.25 µM serpin in test [2], in [7] and in test [8] were 73%, 11% and 31%, respectively. This molecule also returned a % Inhibition, Trypsin, 1.25 µM serpin in test [13] of 38%. Moreover, the % Inhibition, Cathepsin-B, 1.25 µM serpin in [10] came out at 32%.
Take “AtSerpin1 mutant VRPR (SEQ ID NO:4) (from UniProt Q9S7T8 1-391)”: in [2], the % Inhibition, Cathepsin-L, 1.25 µM serpin stood at 38%. The % Inhibition, Cathepsin-L, 1.25 µM serpin in [7] came to 22%. This molecule had a % Inhibition, Cathepsin-L, 1.25 µM serpin in test [8] of 16%. In test [10], this molecule had a % Inhibition, Cathepsin-B, 1.25 µM serpin of 27%; a % Inhibition, Cathepsin-B, 5 µM serpin of 14%; a % Inhibition, Cathepsin-B, 10 µM serpin of 23%. In [12], this molecule showed a % Inhibition, Trypsin, 5 µM serpin of 33% and a % Inhibition, Trypsin, 10 µM serpin of 34%.
Consider “AtSerpin1 mutant WRHR (SEQ ID NO:6) (from UniProt Q9S7T8 1-391)”, for which, in [7], the % Inhibition, Cathepsin-L, 1.25 µM serpin is 8%. In test [10], the % Inhibition, Cathepsin-B, 1.25 µM serpin worked out at 26%.

B1: AtSerpin1 (wild-type Serpin1 from Arabidopsis thaliana, At1g47710), recombinant HIS6-tagged (protein, not shown: small tags and cut ends)
chain: MDVRESISLQNQVSMNLAKHVITTVSQNSNVIFSPASINVVLSIIAAGSAGATKDQILSFLKFSSTDQLNSFSSEIVSAVLADGSANGGPKLSVANGAWIDKSLSFKPSFKQLLEDSYKAASNQADFQSKAVEVIAEVNSWAEKETNGLITEVLPEGSADSMTKLIFANALYFKGTWNEKFDESLTQEGEFHLLDGNKVTAPFMTSKKKQYVSAYDGFKVLGLPYLQGQDKRQFSMYFYLPDANNGLSDLLDKIVSTPGFLDNHIPRRQVKVREFKIPKFKFSFGFDASNVLKGLGLTSPFSGEEGLTEMVESPEMGKNLCVSNIFHKACIEVNEEGTEAAAASAGVIKLRGLLMEEDEIDFVADHPFLLVVTENITGVVLFIGQVVDPLH
Regarding B1, in test [14], the % Inhibition, Cathepsin-B, 1.25 µM serpin was determined as 40%; the % Inhibition, Cathepsin-B, 5 µM serpin was determined as 47%; the % Inhibition, Cathepsin-B, 10 µM serpin came out at 46%; the concentration for 50% inhibition of cathepsin-B activity (FIG. 3) is more than 10 µM. In test [15], this molecule came in with a % Inhibition, Cathepsin-L, 2.5 µM serpin of 16%; a % Inhibition, Cathepsin-L, 5 µM serpin of 68%; a % Inhibition, Cathepsin-L, 10 µM serpin of 73%; a % Inhibition, Cathepsin-L, 20 µM serpin of 76%. Also, the IC50 of cathepsin-L activity inhibition (FIG. 4) in [15] was 4 µM. Moreover, in test [16], the % Inhibition, Trypsin, 1.25 µM serpin was determined as 90%; the % Inhibition, Trypsin, 5 µM serpin came to 97%; the % Inhibition, Trypsin, 10 µM serpin came to 98%; the concentration for 50% inhibition of trypsin activity (FIG. 2) came to 0.1 µM. Further, the % Inhibition, Trypsin, 2 µM serpin in [17] was 28%. In test [18], this molecule registered a % Inhibition, Cathepsin-L, 1.25 µM serpin of 4%; a % Inhibition, Cathepsin-L, 5 µM serpin of 34%; a % Inhibition, Cathepsin-L, 10 µM serpin of 48%; a concentration for 50% inhibition of cathepsin-L activity (fluorometric substrates, FIG. 3) of 10 µM. In [19], this molecule yielded a % Inhibition, Cathepsin-L, 2.5 µM serpin of 7%; a % Inhibition, Cathepsin-L, 5 µM serpin of 20%; a % Inhibition, Cathepsin-L, 10 µM serpin of 34%; a % Inhibition, Cathepsin-L, 20 µM serpin of 43%. Further, the % inhibition of cathepsin-L activity at 20 µM serpin (FIG. 6) in test [19] stood at 45%. In addition, in test [20], the % Inhibition, Cathepsin-L, 0.16 µM serpin stood at 10%; the % Inhibition, Cathepsin-L, 0.31 µM serpin came to 13%; the % Inhibition, Cathepsin-L, 0.63 µM serpin was found to be 17%; the % Inhibition, Cathepsin-L, 1.25 µM serpin was found to be 32%. In test [20], this molecule registered a % Inhibition, Cathepsin-L, 2.5 µM serpin of 48%; a % Inhibition, Cathepsin-L, 5 µM serpin of 58%; a % Inhibition, Cathepsin-L, 10 µM serpin of 67%; a % Inhibition, Cathepsin-L, 20 µM serpin of 73%. In [20], this molecule gave a concentration for 50% inhibition of cathepsin-L activity (FIG. 7) of 2 µM. In [21], the % Inhibition, Cathepsin-L, 1.25 µM serpin was 42%; the % Inhibition, Cathepsin-L, 5 µM serpin was determined as 42%; the % Inhibition, Cathepsin-L, 10 µM serpin is 39%; the inhibition of cathepsin-L activity, plateau (FIG. 5) came out at 40%. In [22], this molecule displayed a % Inhibition, Cathepsin-B, 1.25 µM serpin of 50%; a % Inhibition, Cathepsin-B, 5 µM serpin of 55%; a % Inhibition, Cathepsin-B, 10 µM serpin of 55%; a concentration for 50% inhibition of cathepsin-B activity (FIG. 5) of 1 µM. For the same molecule, in [23], the % Inhibition, Chymotrypsin, 1.25 µM serpin came out at 10%; the % Inhibition, Chymotrypsin, 5 µM serpin came to 31%; the % Inhibition, Chymotrypsin, 10 µM serpin was 40%; the concentration for 50% inhibition of chymotrypsin activity (FIG. 1) was 10 to 20 µM. For the same molecule, in test [24], the % Inhibition, Trypsin, 1.25 µM serpin worked out at 52%; the % Inhibition, Trypsin, 5 µM serpin amounted to 83%; the % Inhibition, Trypsin, 10 µM serpin came to 90%; the concentration for 50% inhibition of trypsin activity (fluorometric substrate, FIG. 1) stood at 1 µM.
